How the values were obtained:
Assay in all cases: cell-based or functional assay
[1] = biological target: T1, Fms(h) (human) (UniProt P07333)
T1 sequence (looked up): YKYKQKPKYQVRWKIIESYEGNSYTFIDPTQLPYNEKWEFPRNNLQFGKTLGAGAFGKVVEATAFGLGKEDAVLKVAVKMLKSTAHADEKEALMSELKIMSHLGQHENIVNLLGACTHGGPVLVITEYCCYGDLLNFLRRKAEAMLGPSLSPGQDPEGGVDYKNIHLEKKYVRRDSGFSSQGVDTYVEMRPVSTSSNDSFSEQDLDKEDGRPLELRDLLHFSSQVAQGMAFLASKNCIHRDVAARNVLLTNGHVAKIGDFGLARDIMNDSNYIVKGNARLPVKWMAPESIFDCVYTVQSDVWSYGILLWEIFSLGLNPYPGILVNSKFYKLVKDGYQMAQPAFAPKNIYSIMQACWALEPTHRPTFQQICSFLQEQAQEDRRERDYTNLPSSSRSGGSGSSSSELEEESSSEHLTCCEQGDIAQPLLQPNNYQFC

[2] = biological target: IGF-1R(h), activated (human) (UniProt P08069)
Sequence of IGF-1R(h), activated (human) (P08069 959-1367 limits assumed): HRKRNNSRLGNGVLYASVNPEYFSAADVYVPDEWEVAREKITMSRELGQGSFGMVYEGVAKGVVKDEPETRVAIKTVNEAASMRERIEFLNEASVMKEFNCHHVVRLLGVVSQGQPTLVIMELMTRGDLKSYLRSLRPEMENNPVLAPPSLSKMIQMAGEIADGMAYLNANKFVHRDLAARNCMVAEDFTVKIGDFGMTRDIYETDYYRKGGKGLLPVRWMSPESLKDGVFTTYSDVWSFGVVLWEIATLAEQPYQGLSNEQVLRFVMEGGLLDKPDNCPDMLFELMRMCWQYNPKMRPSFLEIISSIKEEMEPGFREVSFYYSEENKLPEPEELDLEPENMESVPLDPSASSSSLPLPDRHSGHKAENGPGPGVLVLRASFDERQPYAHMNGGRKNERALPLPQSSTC

[3] = biological target: Met(M1268T)(h) (human) (UniProt P08581)
[4] = biological target: Ron(h) (human) (UniProt Q04912)
Sequence of Ron(h) (human) (Q04912 983-1400 limits assumed): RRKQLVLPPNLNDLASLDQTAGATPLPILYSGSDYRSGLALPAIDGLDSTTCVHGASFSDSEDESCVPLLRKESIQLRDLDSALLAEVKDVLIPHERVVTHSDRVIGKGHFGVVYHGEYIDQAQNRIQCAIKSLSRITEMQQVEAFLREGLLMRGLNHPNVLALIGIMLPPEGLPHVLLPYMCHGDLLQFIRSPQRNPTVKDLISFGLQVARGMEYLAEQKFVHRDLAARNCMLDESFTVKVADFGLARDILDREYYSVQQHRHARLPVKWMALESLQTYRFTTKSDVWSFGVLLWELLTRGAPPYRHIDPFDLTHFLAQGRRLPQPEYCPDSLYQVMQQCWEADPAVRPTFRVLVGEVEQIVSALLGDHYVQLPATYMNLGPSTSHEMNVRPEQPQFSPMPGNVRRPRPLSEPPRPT

[5] = biological target: LOK(h) (human) (UniProt O94804)
[6] = biological target: Rsk4(h) (human) (UniProt Q9UK32)
Sequence of Rsk4(h) (human) (Q9UK32 whole entry): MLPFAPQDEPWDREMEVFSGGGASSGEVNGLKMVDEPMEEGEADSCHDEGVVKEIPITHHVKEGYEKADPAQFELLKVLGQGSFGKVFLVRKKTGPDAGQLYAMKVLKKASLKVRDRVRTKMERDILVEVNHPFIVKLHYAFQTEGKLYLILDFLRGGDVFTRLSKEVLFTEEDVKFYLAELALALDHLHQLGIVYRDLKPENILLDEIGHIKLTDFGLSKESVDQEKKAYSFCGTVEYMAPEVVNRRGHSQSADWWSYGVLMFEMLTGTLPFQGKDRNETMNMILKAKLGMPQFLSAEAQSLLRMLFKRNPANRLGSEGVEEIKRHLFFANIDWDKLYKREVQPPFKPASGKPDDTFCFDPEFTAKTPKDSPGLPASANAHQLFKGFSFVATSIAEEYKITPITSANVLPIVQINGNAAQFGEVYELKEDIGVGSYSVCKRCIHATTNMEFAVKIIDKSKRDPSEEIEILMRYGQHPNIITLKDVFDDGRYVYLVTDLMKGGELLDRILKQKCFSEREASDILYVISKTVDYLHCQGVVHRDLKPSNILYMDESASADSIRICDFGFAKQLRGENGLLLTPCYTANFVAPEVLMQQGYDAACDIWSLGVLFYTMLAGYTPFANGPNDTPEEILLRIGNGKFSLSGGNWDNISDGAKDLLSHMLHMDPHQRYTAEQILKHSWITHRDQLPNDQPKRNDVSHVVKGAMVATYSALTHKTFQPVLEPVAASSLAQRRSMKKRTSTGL

[7] = biological target: JNK3(h) (human) (UniProt P53779)
[8] = biological target: Hck(h) activated (human) (UniProt P08631)
[9] = biological target: CDK1/cyclinB(h) (human) (UniProt P06493)
[10] = biological target: T2, BrSK2(h) (human) (UniProt Q8IWQ3)
T2 sequence (looked up): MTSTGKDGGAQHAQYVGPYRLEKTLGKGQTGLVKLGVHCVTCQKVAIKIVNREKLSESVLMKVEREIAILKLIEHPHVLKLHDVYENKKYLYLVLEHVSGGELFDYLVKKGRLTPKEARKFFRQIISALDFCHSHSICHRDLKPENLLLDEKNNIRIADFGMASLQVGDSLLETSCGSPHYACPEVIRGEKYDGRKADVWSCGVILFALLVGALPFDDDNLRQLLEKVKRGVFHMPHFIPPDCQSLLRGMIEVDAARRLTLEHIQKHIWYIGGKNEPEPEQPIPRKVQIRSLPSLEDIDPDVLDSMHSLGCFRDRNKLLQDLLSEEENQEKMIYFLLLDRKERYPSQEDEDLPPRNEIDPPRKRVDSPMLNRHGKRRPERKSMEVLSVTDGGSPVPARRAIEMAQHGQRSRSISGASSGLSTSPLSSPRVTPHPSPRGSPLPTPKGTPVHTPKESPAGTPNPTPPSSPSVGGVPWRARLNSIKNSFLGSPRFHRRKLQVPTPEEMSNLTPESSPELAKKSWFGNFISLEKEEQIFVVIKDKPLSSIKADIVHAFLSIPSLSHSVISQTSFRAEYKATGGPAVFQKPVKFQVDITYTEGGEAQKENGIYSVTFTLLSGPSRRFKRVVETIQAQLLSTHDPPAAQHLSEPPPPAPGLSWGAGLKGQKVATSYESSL

[11] = biological target: T3, ALK4(h) (human) (UniProt P36896)
T3 sequence (looked up): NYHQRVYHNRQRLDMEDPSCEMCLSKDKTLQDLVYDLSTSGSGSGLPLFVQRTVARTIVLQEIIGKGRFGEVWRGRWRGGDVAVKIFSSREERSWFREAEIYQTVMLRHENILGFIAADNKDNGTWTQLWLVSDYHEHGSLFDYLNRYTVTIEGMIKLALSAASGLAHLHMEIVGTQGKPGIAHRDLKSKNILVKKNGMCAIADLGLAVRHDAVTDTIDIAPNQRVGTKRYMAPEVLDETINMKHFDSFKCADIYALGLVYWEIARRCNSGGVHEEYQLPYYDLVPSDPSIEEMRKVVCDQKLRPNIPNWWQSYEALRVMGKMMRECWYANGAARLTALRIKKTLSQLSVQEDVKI

[12] = biological target: SGK(h) (human) (UniProt O00141)
Sequence of SGK(h) (human) (O00141 60-431 limits assumed): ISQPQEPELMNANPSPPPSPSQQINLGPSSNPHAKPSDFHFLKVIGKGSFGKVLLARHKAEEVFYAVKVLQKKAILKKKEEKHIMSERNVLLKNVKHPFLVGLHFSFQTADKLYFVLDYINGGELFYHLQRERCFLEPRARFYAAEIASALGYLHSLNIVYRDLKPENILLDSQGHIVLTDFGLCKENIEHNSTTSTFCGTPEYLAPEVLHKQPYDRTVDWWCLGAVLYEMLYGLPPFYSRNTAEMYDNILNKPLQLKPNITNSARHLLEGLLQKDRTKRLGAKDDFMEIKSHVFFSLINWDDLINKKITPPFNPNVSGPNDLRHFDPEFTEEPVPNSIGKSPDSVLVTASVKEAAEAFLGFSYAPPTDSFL

[13] = biological target: Arg(h) (human) (UniProt P42684)
Sequence of Arg(h) (human) (P42684 38-1182 limits assumed): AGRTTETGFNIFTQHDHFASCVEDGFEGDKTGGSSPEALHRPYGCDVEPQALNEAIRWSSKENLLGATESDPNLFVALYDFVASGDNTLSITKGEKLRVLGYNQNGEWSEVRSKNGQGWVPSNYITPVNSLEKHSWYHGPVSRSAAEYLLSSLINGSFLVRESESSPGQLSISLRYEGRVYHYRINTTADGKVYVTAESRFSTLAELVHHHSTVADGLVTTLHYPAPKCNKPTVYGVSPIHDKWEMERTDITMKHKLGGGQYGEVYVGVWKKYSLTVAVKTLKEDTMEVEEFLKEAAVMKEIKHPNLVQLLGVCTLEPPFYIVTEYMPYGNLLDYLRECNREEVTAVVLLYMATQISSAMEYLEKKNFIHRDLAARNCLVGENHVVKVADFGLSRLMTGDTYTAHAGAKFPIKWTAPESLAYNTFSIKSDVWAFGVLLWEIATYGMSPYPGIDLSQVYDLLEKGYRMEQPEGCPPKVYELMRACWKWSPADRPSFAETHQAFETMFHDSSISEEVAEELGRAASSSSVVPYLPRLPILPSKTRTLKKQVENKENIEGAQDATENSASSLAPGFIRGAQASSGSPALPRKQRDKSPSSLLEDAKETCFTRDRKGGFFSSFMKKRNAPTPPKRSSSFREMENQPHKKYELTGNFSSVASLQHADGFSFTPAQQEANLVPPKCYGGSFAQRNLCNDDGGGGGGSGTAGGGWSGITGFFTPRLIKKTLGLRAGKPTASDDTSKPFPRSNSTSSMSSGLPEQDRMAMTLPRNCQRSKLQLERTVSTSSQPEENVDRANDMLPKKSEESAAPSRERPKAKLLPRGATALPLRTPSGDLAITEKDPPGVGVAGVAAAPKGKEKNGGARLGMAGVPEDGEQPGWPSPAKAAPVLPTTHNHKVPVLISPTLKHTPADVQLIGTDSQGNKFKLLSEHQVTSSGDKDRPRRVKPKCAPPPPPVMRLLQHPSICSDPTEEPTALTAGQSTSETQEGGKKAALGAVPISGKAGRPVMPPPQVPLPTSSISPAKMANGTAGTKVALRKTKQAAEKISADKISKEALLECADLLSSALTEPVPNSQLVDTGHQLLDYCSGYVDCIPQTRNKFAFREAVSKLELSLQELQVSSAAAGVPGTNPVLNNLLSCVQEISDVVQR

[14] = biological target: SAPK2a(h) (human) (UniProt Q16539)
Sequence of SAPK2a(h) (human) (Q16539 whole entry): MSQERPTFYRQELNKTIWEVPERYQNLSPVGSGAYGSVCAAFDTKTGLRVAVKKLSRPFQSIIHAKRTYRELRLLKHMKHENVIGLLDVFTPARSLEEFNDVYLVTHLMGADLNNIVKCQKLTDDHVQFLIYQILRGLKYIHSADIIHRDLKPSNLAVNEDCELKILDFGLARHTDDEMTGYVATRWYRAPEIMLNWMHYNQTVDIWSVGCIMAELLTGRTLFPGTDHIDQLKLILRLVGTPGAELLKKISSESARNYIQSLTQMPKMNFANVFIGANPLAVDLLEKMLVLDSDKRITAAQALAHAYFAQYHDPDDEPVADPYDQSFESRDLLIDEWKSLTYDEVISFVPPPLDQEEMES

[15] = biological target: PKCβI(h) (human) (UniProt P05771)
[16] = biological target: T4, IKKβ(h) (human) (UniProt O14920)
T4 sequence (looked up): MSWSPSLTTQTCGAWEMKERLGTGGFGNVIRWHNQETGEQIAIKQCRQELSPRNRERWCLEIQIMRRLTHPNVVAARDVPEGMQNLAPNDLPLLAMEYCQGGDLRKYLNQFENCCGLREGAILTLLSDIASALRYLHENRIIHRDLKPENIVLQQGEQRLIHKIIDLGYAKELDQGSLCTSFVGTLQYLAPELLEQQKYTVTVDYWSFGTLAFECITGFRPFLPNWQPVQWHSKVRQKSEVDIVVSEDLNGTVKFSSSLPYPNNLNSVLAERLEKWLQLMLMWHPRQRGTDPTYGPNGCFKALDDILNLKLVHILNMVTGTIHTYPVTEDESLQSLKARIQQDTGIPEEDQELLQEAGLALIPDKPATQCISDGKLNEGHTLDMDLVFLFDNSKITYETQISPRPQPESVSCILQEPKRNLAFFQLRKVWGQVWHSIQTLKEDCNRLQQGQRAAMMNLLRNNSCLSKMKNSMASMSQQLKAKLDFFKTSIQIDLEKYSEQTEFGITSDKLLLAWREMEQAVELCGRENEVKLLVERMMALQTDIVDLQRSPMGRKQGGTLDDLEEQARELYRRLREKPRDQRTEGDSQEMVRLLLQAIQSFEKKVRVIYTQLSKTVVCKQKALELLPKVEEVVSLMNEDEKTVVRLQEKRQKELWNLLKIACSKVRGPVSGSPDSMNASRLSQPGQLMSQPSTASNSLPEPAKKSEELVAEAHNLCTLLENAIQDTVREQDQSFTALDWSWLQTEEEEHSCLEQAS

Row | Substance | % activity at 100 µM [1] [%] | % activity at 100 µM [2] [%] | % activity at 100 µM [3] [%] | % activity at 100 µM [4] [%] | % activity at 100 µM [5] [%] | % activity at 100 µM [6] [%] | % activity at 100 µM [7] [%] | % activity at 100 µM [8] [%] | % activity at 100 µM [9] [%] | % activity at 100 µM [10] [%] | % activity at 100 µM [11] [%] | % activity at 100 µM [12] [%] | % activity at 100 µM [13] [%] | % activity at 100 µM [14] [%] | % activity at 100 µM [15] [%] | % activity at 100 µM [16] [%]
1 | MMI-0300 (peptide) | 45 | 80 | 255 | 93 | 37 | 90 | 89 | 82 | 73 | 83 | 140 | 48 | 72 | 90 | 78 | 84
2 | MMI-0400 (peptide) | 37 | 77 | 265 | 79 | 18 | 91 | 70 | 81 | 74 | 86 | 130 | 54 | 84 | 85 | 78 | 84
3 | MMI-0500 (peptide) | 14 | 45 | 239 | 46 | 7 | 29 | 171 | 67 | 57 | 84 | 81 | 2 | 22 | 52 | 1 | 71

Reference: patent publication US20150064134A1
